Our source for the protein production values is a protein production outcome set (Wang et al. 2014).

This data set in a line: label from the status in PepcDB records.
Regarding “MVTAGKTLGKRMSTMRHRSCFSLFAGLALVFCLAVGTAAAGPVQVDIYGPGQGSLNLAMAAPLGPTPGTPVSGMGVKLNGFINENLSFLPFLRLVDQRAILGGTVMQGYKSPDIDLKRFQLAGADLVVTAGWPQGDASGSFVELRVYEALSGKLVFGKAYSHVEDGLLPNVADRFCSDLMKALTGRGEFFKSTLAFVKHDGKNKRDVWLVKPVGRDLRKITNLPGEALSPSWSPDGRFVVFSHFDDRSHALGVWDRLTRQVQRIRFPGNTVIGPCFLPDNKVAVSLSSGRNPDIFLLNHLFKKERELEANPSINVSPSFDATGTKMAFTSSRMGGPQVFMKDMTTGQVTRISKTGSYNTEPSISPDGTLVAFTKMTDTGHRIFVYDMVTQSERQVSFGPGRDEQPSFAPDSYFLAFTSNRNGAQQIFLVTRHGGDPKRVPTGPGDASFARWGMIPE”, the protein production result was “failed”.
For “MVTFVLAITAISCLIWCFLLVGWGNFWRCDQVLNFDRPSTLQAYPSVAAIIPARDEASVLGQSLPSLLEQHYPGPLKIILVDDQSSDGTGAVAQRIASGLGHGDRLEVVSGQPLPPGWSGKLWAVEQGWQTVQLKKKGSDSWPEYIFLTDADIAHGPQTITALVEKAQRDNLALVSLMVLLRCESVWEKLLIPAFIFFFQKLYPFPLVNNPQRQTAAAAGGCILMQRSALQTIGGIGALKEALIDDCTLAQKVKAQKLPIWLGLTRANWSLRPYDSLETIWQMVSRTAYTQLNYNPLLLLGTLLGMALVYLTAPIALILAIIWGNAPLALLGAFTWMLMAIAYGPTLKFYGRSWLWGLTLPLIALLYSLMTLDSAWQHWRGQGGGWKGRIYPQGS” the value was “failed”.
For “MVTIANDFLTVKISRHGAELTSIKDNLTGRERLWQADPAVWGRHAPVLFPIVGALADNQYHYAGKTYHMGQHGFARDRDFTVLSATPFKASFVLKDDDKTRAMYPFAFRLIITFALENNNLHVTYHVDNPDKSEPLFFSIGGHPGFKVPMTPDTQFSDYYLNFKPRKSLVQIPLVAGEGIDYTHRTLAATDANLALTHETFDHDALIFALLGKTTFNLVSDKTKHGVSVTMTDTPYLGVWSPYPTTGDFVCIEPWWGIADTIGSTGDLTRKLGINRLEPGTAFEKGYMISIFLEHHHHHH” the value was “failed”.
As for “MVTLEYNANSKLITASDAVVALSTETNIDQINVLTTSLIGETNPNFTPQPNEALSKMIKGLFESGMKNLQQKKLNEALKNVSLAIEMAQRKRAPWEAFAIQLPELHFMLRSKIDLCLILGKHLEALQDLDFLLGTGLIQPDVFVRKADCLLKLRQWEEARATCERGLALAPEDMKLRALLIETARNLAEYNGE”, the protein production entry is listed as “failed”.
For “MVTNMVKLRNLRRLYCSSRLLRTIQNGRISSVSSISLSKKYTTKSAKEGEENVERKHEEEKKDTLKSSSVPTSRISRLFHYGSLAAGVGMNAAAKGISEVAKGNSPTWKSLILSDSNIDRITNKFSKMRGVALKIGQLLSFQDEKVLPKELYEILSRVQNSANHMPQRQLEKVMAKELGANWKTKFSKFDKIPMAAASIGQVHAAELPSGQRVVVKIQYPGVKESIDSDLNSLLMLLTASSLLPKGLFLDKTIANARTELKWECDYNREARALQKFEALLKDDPAFEVPHVFPEYTTDNIITATRMEGTEIMKLPKASQETKNFISENIMRLCLEEIATFKYMQTDPNWANFLYNGRTKKIELLDFGASRPFAEDFILKYRKLLTYATLRDRKGAYEMSVQLGYLTGLESQSMKDAHVDSVLTLGEPFRGDVDKSFDFKDQTVSDRIRGNIGLMLNERLCPPPEETYSLHRKFSGIFLLCARMGASVHCAKLFKEIFAYKV” the value was “failed”.
For the sequence “MVTPAQVARRAALWMLTSTVAFGLMAITIRLASSTIATAEIAFFRNAFGLLALLPLILRPGKPLPRTRQLPQYFARTLIGLASMLCGFWAIGHLPLSQAISLSYSTPLFVTVLAVVWLHEQVRLRRWLAVAAGFIGVLVILRPGSSTFTPGLLIALLAAVISAIVAIQIKQLSRSDDSDTVVFYTYVFWVPMSLIPALFQWTWPQGIGWVWLVATGIFGTAGQLFWTRALKLGEVSALQPISFMQLPLVALLGWWLFGEAIERHTVIGAAIIIGANVYIAHRETVLARRAATHAPVEGAKPGE”, the protein production result is listed as “failed”.
For “MVTQNKLKKLVLGLSLIAASSAAMATTDTAKPNILAIWGDDIGPFNISAYNRGIMGYKTPNIDRIANEGIIFTDSYGDQSCTAGRAGFITGQHPMRTGLTKVGLPGAKEGLNKKDPTIAELLKPHGYMTGQFGKNHLGDQDEHLPTNHGFDEFFGNLYHLNAEDEPEHPDYPKDPAFKKRFGPRGAIHSFADGKITDTGPVTKKRMETIDEEFLGAALKFIDKAHAAKKPFFVWFNSTRMHVWTRLKPESDGVTGQGLYADGMVEHDGHVGQLLDKIDKLGIAENTIIMYTTDNGAELALWPDGGYTPFRGEKNTNWEGGYRVPMMVKWAGKIKPNQVSNEMISLIDWMPTILAVAGDTNIKSKLKKGTNVGGTKFKVHLDGYNFLPHFLDTTKEGPRKEFIYSSDTGDIVGLRYEDYKFVFKEQRAHGLEVWQNPWTTLRAPKIFNLRMDPYERMDHESEGYGQWWAEHMFLMAPAMMKVAQFKATFKEFPQRQKPGSFVP” the value was “failed”.
In the case of “MVTSSSMRRCRGALSLSFWIFLVLRSVLSRPVFGAAAGPAVQSARQCSASRGTGESDPPPFQPTLRLFPPSRRRRSYCRAMTPSRPSPDFPDGGFVQVRGARQHNLKDISVKVPRDALVVFTGVSGSGKSSLAFGTLYAEAQRRYLESVSPYARRLFNQAGVPDVDAIDGLPPAVALQQARGTPTARSSVGSVTTLSNLLRMLYSRAGDYPPGQGIVYAEGFSPNTPEGACPECHGLGRVYTVTEDSMVPDPSLTIRERAVAAWPQAWGGQNQRDILVTLGIDVDVPWRELPEETRHWILFTDEQPVVPVYPGLTPAETQRALKKKMEPSYMGTFSSARRHVLHTFANTESASMKKRVQGYMISEECPLCHGKRLRQEALNVTFAGLDITELSRLPLARVSELLRPYAEEREPGHAERVKNRPEQAIALQRMAADLVKRLDVLLHLGLGYLGLDRSTPTLSPGELQRLRLATQLYSNLFGVVYVLDEPSAGLHPADTEALLSALENLKRGGNSLFVVEHDLDVIRRADWLVDVGPEAGEKGGEILYSGPPEGLKHVPESQTGQYLFADRHTEPHTPREPAGWLELNGVTRNNLDNLDVRFPLGVMTSVTGVSGSGKSTLVSQALVDALAAHFGQPVNPDPEDDEDPADHTAGSARLGGDLAQITRLVRVDQKPIGRTPRSNMATYTGLFDQVRKLFAATPLAKKRGYNAGRFSFNVKGGRCEHCQGEGWVMVELLFLPSVYAPCPVCHGTRYNAETLEVEYRGKNIADVLALTVDEAHDFFADESAIFRALDTLREVGLGYLRLGQPATELSGGEAQRIKLATELQRSGRGGTVYVLDEPTTGLHPADVERLQRQLVKLVDAGNTVIAVEHKMQVVAASDWVLDIGPGAGEDGGRLVAQGTPAEVAQAAGSVTAPYLRAALR”, the protein production entry was “failed”.
Turning to “MVTSTELTGQTAGVPDAGLVERALAYVREKADGEKPTTLPTGETVLSHAEGMLRILDGLRVDDAARAAACLFPMVAFVPGVEAHIEERFGEDVARLVKGVRQLLRIGAIATQAEAVETSKSQAAARQEQVEALRKMLLAFAQDIRVVLVRLASRLQTLRWLAQTKSQPLPGVARETLDIYAPLANRLGIWQMKWELEDLAFRFEQPETYKRIAKLLDEKRIEREGYISQAIARLQSELAAAGIRAEVTGRPKHIYSIWKKMRGKALDFADLYDVRAFRVIVDDIKDCYTVLGIVHHIWQPIPREFDDYISRPKANGYKSLHTVVIGDDGRAFEVQIRTHEMHHFAEYGVAAHWRYKEAGGKGYSGQFTADNSYDEKIAWLRQLLAWKDDADHTVTHEDSPWEQLKHAAIDDHIYVLTPQARVVALPQGATPVDFAYYLHSDLGHRCRGARVDGAMVPLNTPLKNGQTVEIVAVKQGGPSRDWLNPELGYLASSRARAKVRAWFNALDSQETIAQGRALIEKTLQREGKTAVNLDDLATRLNFKTPDDLFAAVAKEEFSLRHVEQALRHPDGEVQPQFSEEEAVTKKSRATSVARGAKSGVLVVGVDSLMTQMSRCCKPAPPDDIVGFVTRGRGVSIHRRNCHTFQQLSTRDPERVIQTEWGKRSDAVYPVDIQVEAIDRQGLLRDISEVLSREKINVTGVKTLSSKGVARMQFTAEVAEATQLQRAISLIEEVQGVLHAKRK”, the protein production result was “failed”.
For “MVTSVSALAVAVVHSVAFAIGRRIGRYNVVDVVWGLGFVAVAVAAATLGHGDPVRRWLLLALVSTWGLRLSWHMYRKTAGQGEDPRYADLLRGATPVQALRKVFGLQGLLTLFVSFPLQLSAVTGPTPKPLLAVGGVGLAVWLVGITFEAVGDWQLWVFKSDPANRGVIMDRGLWAWTRHPNYFGDACVWWGLWLITINDWAPLATVGSPLLMTYLLVDVSGARLTERYLKGRPGFAEYQRRTAYFVPRPPRSARR” the value was “failed”; for “MVTVVVPAHNEDVVIAQTAKAILDMKYPRDKLEIILFADNCEDNTYQEMQSIKALPQYADRDLTLINRSGTGGKAGVLNDALKIAKGDYICVYDADAMPEKNALYFLVQKVMEDPERHVAAFGRNKTRNANQNFLTRCINQEIVVTQRIQHVGMWHLGKIGRIPGTNFIINTEFVKSIGGWRNGALTEDTDISFKIMQSGKLIALAYNSEAFQQEPETLKSYYLQRKRWAKGNYEVVIANFKHLFGRGNWRVKWEVFYYTCTFFWFNAAIVLSDILFFSNLIALIIGLFKPGVQVPFAFDANNIYMAQLLLFNWFLMILLYLLQISISQATQYGQATVKQIWIALLAYFTYTQLFIIVSISSVASVMMDKILHREGTKWVKTKRFAG”, “failed”; for “MVTYSTFIVIAIYLILTILISWFVNQRSIGNTDFSTGGRQFGWFTAGVSILATYISAMTFIGMPGWVYQSGMEALNIHLNYPIVIFFAVVFFIPVFYRMGFTSIYEYLEHRFGVYARTINSVVFILVQCISSGVILYAIALILIQILPISIVEAIVYITLFTACYTYAGGISTVIWTDMLQSAVLIAGSVAIFVLLLLQVDGVHGVSREQLNIINLQFDLGVDTTLWAGVVAVSFLHMSVYGTNQLIIQRTLATRCEKTAQKSMLLCGYGAFFIYFFFALLGVLLSIFYQERHFTNSNEVILDFVFHHTNPWVIGLIISALAAAAMSTLDSTYNSMATVATFDLYQRFIRRNAPDHHYQAVARKMSLVAAGLVVIPALLAVSNESVLKTIASLTSIFVGIRLGSFVLGLFSNQANEKGVIAGSIISIAAVLGARLMDIAWPWFAPIGTVFFLVSGVVISRYWGDNSIQQQAFIARQKHLFATPTMSQYGLLVFAAVTIAVCAIIPDWLYNALS”, “failed”.
The same measure for “MVVDSVTMEEEDTKEEAAMVATEGEDTKEEEDDTKEAVGDKEEGEVTAATAAATKVTMAAQGVVHMPEKRFRLSLVTKST”: “failed”.
The same measure for “MVVIDPTLLGILACPQDKGPLLLVGDELLYNPRLRRAYPIENGIPVLLIDEARDVGADEHETLLARAAGEA”: “not failed”; for “MVVSIITPLYKVEDFIARCADSLFRQSYTEIEYIFVDDCSSDRSVEVLLQVAERYPQLQQQIRILHHESNRGVAAARETGLAAATGEYVYWVDADDWIEPDAIEKMVVRSEQGQKDIIACGWYLCFRQNERRMPMPCYADAETALRGMLSGTMRWNLWLYMIKRDLYLMNDIHFMEGENVGEDMLVLIKLFSHAKSIGFVKDAFYHYVKQNENSLTRLSPEQQMKRQMRNLQAATDYLVTHFIGKYEKEINFFKLNAKMPLLISNDKNSYRTWTACFPEANKYIMANKRQTLRMRLVQLMAAKRQFWLVELYYQLVFKFVYGILYK”: “failed”; for “MVVVCASHIQPAIICRFTWLRFLMEIILIRHGKPTSANNPVLNAVDFTKWVRRYNFSDVSTNSRPDSILDEYKSHYIVSSDLERAIHSASIYTGQSPELTSKLYREMEIPRYKFPLRFKAMTWVYINRAFWMLGLKGSFESYRQAKIRAELASDHLVELAREQDKVILFGHGYLNLHIRRSLIKKGWKLNSKSNGFWGISSLEG”: “failed”.
